Legend:
[1] = Optimum pH/temperature, pH stability and heat stability of sorbitol kinase; assay type: physicochemical, Erwinia sp. SK-472-20
Description: One milliliter of a reaction mixture consisting of 0.2M Tris-HCl buffer solution (pH 8.5) 0.2 ml, 0.1M ATP 0.02 ml, 0.1M MgCl2 0.02 ml, 100 U/ml sorbitol-6-phosphate dehydrogenase (refer to referential example) 0.05 ml, 10 mM NAD 0.1 ml, 100 U/ml diaphorase (Asahi Chemical Ind. Co.) 0.05 ml, 0.25% NTB 0.1 ml, 1M sorbitol 0.1 ml, 10% Triton X-100 0.01 ml and distilled water 0.3 ml was pre-heated at 37° C. for 1 minute, and the enzyme solution 20 μl was added thereto, then the mixture was incubated for 10 minutes.
Reaction was terminated by adding 0.1N HCl 2 ml and optical density of the mixture was measured using 1.0 cm cell at 550 nm within 5 minutes (As). Also optical density of distilled water 20 μl in place of the enzyme solution was measured in the same manner as above as a blank test (Ab). Enzymatic activity is determined by difference in the absorption between the optical density of the enzyme solution (As) and the blank test (Ab), i.e. (As-Ab). A unit of enzyme activity is defined as an amount of enzyme which generate 1 μm of reduced NAD in one minutes at 37° C. and calculated by the following equation.
Optimum pH is measured by the above enzyme assay method. In FIG. 1, 100 mM phosphate buffer is used for pH 6.0-8.0 (-.largecircle.-); 100 mM Tris-HCl buffer for pH 7.0-9.0 (-.circle-solid.-); and 100 mM glycine-sodium hydroxide buffer for pH 9.0-10.5 (-.quadrature.-). Optimum pH is 8.5-9.5.
100 mM buffer solutions containing sorbitol kinase 0.5 U/ml were treated at 60° C. for 15 minutes, and remaining activity was measured by the above enzyme assay method. In FIG. 2, 100 mM acetate buffer is used for pH 4.5-6.0 (-.largecircle.-); 100 mM phosphate buffer for pH 6.0-8.0 (-.circle-solid.-); 100 mM Tris-HCl buffer for pH 7.0-8.5 (-.quadrature.-); and 100 mM glycine-sodium hydroxide buffer for pH 9.0-10.5 (-.box-solid.-). Most preferable stability is observed at pH 6.5-10.0.
Optimum temperature of the enzyme was measured by changing temperature range at 37° C.-60° C. according to the above assay method. Result is shown in FIG. 3, in which optimum temperature of the present enzyme is approx. 50° C.
100 mM Tris-HCl buffer solution (pH 8.5) containing sorbitol kinase 0.5 U/ml was treated at various temperatures for 15 minutes, and remaining activity was measured by the above enzyme assay method. Results are shown in FIG. 4 in which the enzyme is stable at least up to 60° C.

[2] = Physico-chemical properties of sorbitol kinase produced by the transformant; assay type: physicochemical, Erwinia sp. SK-472-20 gene expressed in E.coli; conditions: enzyme produced by transformant
[3] = Isoelectric point of sorbitol kinase (electrophoresis using carrier ampholytes); assay type: physicochemical, Erwinia sp. SK-472-20
Text: 4.8±0.5 (electrophoresis using carrier ampholytes)

B1: sorbitol kinase: ATP-utilizing sorbitol kinase of Erwinia sp. SK-472-20, stable up to 60° C., amino acids 1 to 313 of SEQ ID NO: 1; also produced by E.coli transformant (protein)
chain: MRIGIDLGGTKTEVIALSEQGEQLFRHRLPTPRDDYHQTIETIARLVDMAEQATGQTGTVGMGIPGSISPYTGVVKNANSTWLNGQPFDKDLSQRLNREVRLANDANCLAVSEAIDGAAAGAQTVFAVIIGTGCGAGVALGGRAHIGGNGTAGEWGHNPLPWMDEDELKYRAEVPCYCGKQGCIETFISGTGFATDYHRLSGQPLKGNEIMRRVGEHDPVAELALSRYEMRLAKSLAHVVNILDPDVIVLGGGMSNVDRLYATVPNLVKQWVFGGECETPIRKRCTGTPAACAAPRGSGRYSHSPSPYVRGAG
- Heat stability (stable up to) ([1]; 100 mM Tris-HCl pH 8.5, 0.5 U/ml, 15 minutes, remaining activity, FIG. 4): ≥ 60 °C
- Optimum pH ([1]; 100 mM phosphate, Tris-HCl, glycine-sodium hydroxide buffers, FIG. 1): 8.5-9.5
- pH stability (most preferable stability) ([1]; 0.5 U/ml in 100 mM buffers, 60° C. for 15 minutes, remaining activity, FIG. 2): 6.5-10.0
- Optimum temperature ([1]; range 37° C.-60° C., FIG. 3): approx. 50 °C
- Heat stability (stable up to) [2]: up to 60 °C
- Isoelectric point [2]: 4.80±0.5
- Optimum pH [2]: 8.5-9.5
- pH stability [2]: 6.5-10.0
- Isoelectric point [3]: 4.8±0.5

Source: patent publication US5843750A, “Sorbitol kinase, process for producing the same, and substantially pure microorganism” (priority 1994, dated 1998)
